For assay [1], the target named is HIV-1 HXB2 Env glycoprotein labelled with super folder GFP (GFPOPT) in the V4 loop of gp120, on pseudovirions (HIV-1 HXB2) (UniProt P04578). The experiment in a line: FRET or BRET; single-virus Eapp traces, dwell times as CDF; virions on MT-4 T cells with 100 µg/mL PGT145. (Bioluminescence resonance energy transfer reports proximity on the nanometre scale.)
For assay [2] the target is unchanged. The experiment in a line: FRET or BRET.
Assay [3] shares this target. The experiment in a line: FRET or BRET; single-virus Eapp traces (3 s per frame, 5 min), dwell times as cumulative distribution functions; mature virions in vitro, unliganded; room temperature.
The target is the same in assay [4]. As to the kind of experiment: FRET or BRET; single-virus Eapp traces, dwell times as CDF; mature virions engaged with living MT-4 T cells; room temperature.
Assay [5] has the same target.
Assay [6] addresses HIV-1 HXB2 Env glycoprotein labelled with super folder GFP (GFPOPT) in the V4 loop of gp120, on pseudovirions (HIV-1 group M subtype B, isolate HXB2) (UniProt P04578).

The text below walks through data of PMC8551276.

Regarding “HIV-1 HXB2 Env glycoprotein labelled with super folder GFP (GFPOPT) in the V4 loop of gp120, on pseudovirions (from UniProt P04578) (complex)”, the CDF average lifetime of the high FRET regime (Env-Env interactions), on T cells with PGT145 in assay [1] came out at 10 s. Further, the CDF average lifetime of the high FRET regime (Env-Env interactions), with sCD4 in assay [2] is 16 s. Also, the CDF average lifetime of the high FRET regime (Env-Env interactions) in assay [3] was 68 s. In assay [4], this substance showed a CDF average lifetime of the high FRET regime (Env-Env interactions), virions on MT-4 T cells of 53 s.
Regarding “Human soluble CD4 recombinant protein (sCD4_(D1-D4)) (domain or fragment)”, in assay [5], the CDF average lifetime of the closed Env conformation (0.12<Eapp<0.23) on mature virions with 10 µg/mL sCD4 (154 s without) was found to be 75 s and the CDF average lifetime of the open Env conformation (Eapp<0.12) on mature virions with 10 µg/mL sCD4 (84 s without) worked out at 241 s.
Regarding “anti-HIV-1 gp120 monoclonal, b12 (antibody)”, in assay [6], the CDF average lifetime of the closed Env conformation, virions on MT-4 T cells with 100 µg/mL b12 (63 s without) came out at 125 s and the CDF average lifetime of the open Env conformation, virions on MT-4 T cells with 100 µg/mL b12 (168 s without) was determined as 61 s.
